Experimental data: patent US20190031760A1 (Hoffmann-La Roche, published 2019)

Columns and labels:
[1] = target: T1, avi-Fc-human ASGPR H1 CRD (human, UniProt P0DOX5 223-449 = IgG part, biotinylated at the N-terminal Avi tag); test: SPR (ProteOn XPR36), antigen captured by neutravidin, Fab as analyte;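 for result: antigen surface loaded to 200, 400 or 800 RU in PBST pH 7.4, sensorgrams referenced against a buffer-only in-line channel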
T1 construct: also called Fc-CRD; hu/cyASGPR H1 CRD

[2] = target: T2, full-length human ASGPR H1 with a C-terminal SNAP tag, on transfected HEK293 cells (human, UniProt P07306 1-291, SNAP tag labeled with SNAP-Lumi4Tb (terbium)); test: FRET on HEK293 cells expressing terbium-labeled ASGPR H1-SNAP; IgG1 at 50-0.39 nM, anti-humanFc-d2 as acceptor
T2 construct: whole, on cells; Transiently expressed in HEK293 cells for the FRET assay; also called transmembrane ASGPR H1-SNAP tag fusion protein labeled with terbium
T2 sequence (looked up): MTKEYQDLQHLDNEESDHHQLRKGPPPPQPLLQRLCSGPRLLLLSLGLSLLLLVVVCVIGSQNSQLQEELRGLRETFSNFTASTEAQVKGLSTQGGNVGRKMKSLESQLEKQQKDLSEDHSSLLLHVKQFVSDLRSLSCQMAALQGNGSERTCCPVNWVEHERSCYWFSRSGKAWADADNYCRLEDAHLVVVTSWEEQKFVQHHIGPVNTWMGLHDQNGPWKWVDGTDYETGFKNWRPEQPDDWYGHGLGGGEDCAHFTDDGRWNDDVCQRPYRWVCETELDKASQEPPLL

[3] = target: T1, avi-Fc-human ASGPR H1 CRD; test: SPR (ProteOn XPR36), antigen captured by neutravidin, Fab as analyte; remark: listed apart in the source;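 for result: antigen surface loaded to 200, 400 or 800 RU in PBST pH 7.4, sensorgrams referenced against a buffer-only in-line channel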
[4] = target: T3, avi-Fc-human CLEC10A stalk CRD (human, biotinylated at the N-terminal Avi tag); test: as above
T3 construct: Homodimeric Fc fusion of the human CLEC10A ECD, closest homologue of ASGPR H1, used as specificity control; also called huCLEC10A stalk CRD

[5] = target: T1, avi-Fc-human ASGPR H1 CRD; test: SPR (ProteOn XPR36), antigen captured by neutravidin, antibody construct as analyte
[6] = target: T4, avi-Fc-human ASGPR H1 stalk CRD (human, biotinylated at the N-terminal Avi tag); test: SPR (ProteOn XPR36), antigen captured by neutravidin, Fab as analyte;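 note: antigen surface loaded to 200, 400 or 800 RU in PBST pH 7.4, sensorgrams referenced against a buffer-only in-line channel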
T4 construct: Homodimeric (bivalent) Fc fusion of the human ASGPR H1 ECD (stalk and CRD); also called huASGPR H1 stalk CRD; Fc-stalk-CRD

[7] = target: T5, avi-Fc-cynomolgus ASGPR H1 stalk CRD (cynomolgus, biotinylated at the N-terminal Avi tag); test: as above
T5 construct: Homodimeric Fc fusion of the cynomolgus ASGPR H1 ECD; also called cyASGPR H1 stalk CRD

[8] = target: T6, avi-Fc-human ASGPR H1 stalk (human, biotinylated at the N-terminal Avi tag); test: as above
T6 construct: Homodimeric Fc fusion (wild type Fc); also called huASGPR H1 stalk; Fc-stalk

[9] = target: T7, avi-Fc-cynomolgus ASGPR H1 stalk (cynomolgus, biotinylated at the N-terminal Avi tag); test: as above
T7 construct: Homodimeric Fc fusion (wild type Fc); also called cyASGPR H1 stalk

[10] = target: T8, human ASGPR H1 on ASGPR-positive hepatic cells (HepG2, primary human hepatocytes, Huh-7) (human, UniProt P07306 1-291); test: FACS on HepG2 cells, purified Fab at 1.1, 3.3 and 10 µg/ml, 30 min at 4°C, FITC anti-human F(ab')2 secondary
T8 construct: whole, on cells; Endogenous receptor on cells; the antibodies were selected on H1; also called surface-exposed ASGPR
T8 sequence (looked up): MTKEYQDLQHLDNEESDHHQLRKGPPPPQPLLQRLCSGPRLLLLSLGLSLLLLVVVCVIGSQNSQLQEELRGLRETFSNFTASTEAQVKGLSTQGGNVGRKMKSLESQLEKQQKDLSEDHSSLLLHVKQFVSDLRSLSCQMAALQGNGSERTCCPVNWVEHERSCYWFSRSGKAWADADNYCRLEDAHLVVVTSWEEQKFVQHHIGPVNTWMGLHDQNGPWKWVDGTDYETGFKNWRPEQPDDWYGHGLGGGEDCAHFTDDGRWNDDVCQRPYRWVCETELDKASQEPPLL

T3 sequence (chain, as listed by the source limits assumed): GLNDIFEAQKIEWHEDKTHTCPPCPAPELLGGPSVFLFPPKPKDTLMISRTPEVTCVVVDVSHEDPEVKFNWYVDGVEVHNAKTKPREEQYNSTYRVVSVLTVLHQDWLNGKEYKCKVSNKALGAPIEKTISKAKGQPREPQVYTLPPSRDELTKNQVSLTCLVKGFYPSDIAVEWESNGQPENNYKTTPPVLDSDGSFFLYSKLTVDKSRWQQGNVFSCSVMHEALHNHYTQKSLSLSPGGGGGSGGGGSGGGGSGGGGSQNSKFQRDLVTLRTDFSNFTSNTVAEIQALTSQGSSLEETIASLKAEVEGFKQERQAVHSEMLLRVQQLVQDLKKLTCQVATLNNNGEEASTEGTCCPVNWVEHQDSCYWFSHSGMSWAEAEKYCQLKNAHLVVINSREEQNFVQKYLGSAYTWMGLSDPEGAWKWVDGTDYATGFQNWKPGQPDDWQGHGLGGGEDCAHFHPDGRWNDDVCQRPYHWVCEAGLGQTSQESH
T6 sequence (chain, as listed by the source limits assumed): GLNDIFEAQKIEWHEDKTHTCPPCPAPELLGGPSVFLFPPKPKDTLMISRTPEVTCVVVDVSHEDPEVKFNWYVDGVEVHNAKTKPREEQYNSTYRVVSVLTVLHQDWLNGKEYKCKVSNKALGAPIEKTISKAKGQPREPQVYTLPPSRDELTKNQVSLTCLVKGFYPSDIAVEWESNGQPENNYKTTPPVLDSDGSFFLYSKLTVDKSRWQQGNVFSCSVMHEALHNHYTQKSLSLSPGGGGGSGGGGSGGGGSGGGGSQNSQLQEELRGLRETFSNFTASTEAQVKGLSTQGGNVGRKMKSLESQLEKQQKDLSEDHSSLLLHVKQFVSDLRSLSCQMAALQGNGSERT
T7 sequence (chain, as listed by the source limits assumed): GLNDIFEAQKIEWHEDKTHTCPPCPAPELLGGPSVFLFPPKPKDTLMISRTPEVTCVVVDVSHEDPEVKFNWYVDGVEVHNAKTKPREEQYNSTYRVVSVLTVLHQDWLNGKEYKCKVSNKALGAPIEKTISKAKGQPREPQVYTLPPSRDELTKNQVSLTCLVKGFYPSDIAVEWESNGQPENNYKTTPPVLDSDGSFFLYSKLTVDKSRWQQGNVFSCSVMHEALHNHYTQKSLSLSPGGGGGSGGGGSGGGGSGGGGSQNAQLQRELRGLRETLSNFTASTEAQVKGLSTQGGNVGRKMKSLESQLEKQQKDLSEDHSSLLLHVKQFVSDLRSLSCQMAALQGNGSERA

B1: 51A12 A82G S116A Fab (Fab, V domains shown)
VH: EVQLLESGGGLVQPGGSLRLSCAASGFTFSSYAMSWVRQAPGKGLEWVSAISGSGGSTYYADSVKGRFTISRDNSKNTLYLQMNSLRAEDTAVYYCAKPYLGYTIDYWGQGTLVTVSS
VL: SSELTQDPAVSVALGQTVRITCQGDSLRSYYASWYQQKPGQAPVLVIYGKNNRPSGIPDRFSGSSSGNTASLTITGAQAEDEADYYCNSRDICCNRAVRNFGGGTKLTVLG
notes: Light chain variant of 51A12 with the parental heavy chain; To be rechecked
Kd [1]: 1.25 nM | koff [1]: 0.00016 s⁻¹ | kon [1]: 127000 M⁻¹ s⁻¹

B2: R7E12 IgG (antibody, V domains shown)
VH: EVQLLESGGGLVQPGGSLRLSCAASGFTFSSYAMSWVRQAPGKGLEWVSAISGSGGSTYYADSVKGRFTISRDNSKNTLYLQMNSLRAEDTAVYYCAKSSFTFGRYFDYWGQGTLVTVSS
VL: SSELTQDPAVSVALGQTVRITCQGDSLRSYYASWYQQKPGQAPVLVIYGKNNRPSGIPDRFSGSSSGNTASLTITGAQAEDEADYYCNSRKSSSKNVVFGGGTKLTVL
notes: To be rechecked
Kd [2]: 22 nM

B3: 52C4 Fab (Fab, V domains shown)
VH: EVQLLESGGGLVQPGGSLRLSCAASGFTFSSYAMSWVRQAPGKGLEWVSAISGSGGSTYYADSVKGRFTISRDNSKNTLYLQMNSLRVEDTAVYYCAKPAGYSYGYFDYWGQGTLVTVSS
VL: SSELTQDPAVSVALGQTVRITCQGDSLRSYYASWYQQKPGQAPVLVIYGKNNRPSGIPDRFSGSSSGNTASLTITGAQAEDEADYYCNSGASSGNQLVFGGGTKLTVL
notes: Human lambda Fab from E. coli
Kd [3]: 28.6 nM | koff [3]: 0.00396 s⁻¹ | kon [3]: 139000 M⁻¹ s⁻¹ | binding result [4]: no binding | Kd [5]: 28.6 nM | koff [5]: 0.00396 s⁻¹ | kon [5]: 139000 M⁻¹ s⁻¹

B4: R7E12 Fab (Fab, V domains shown)
VH: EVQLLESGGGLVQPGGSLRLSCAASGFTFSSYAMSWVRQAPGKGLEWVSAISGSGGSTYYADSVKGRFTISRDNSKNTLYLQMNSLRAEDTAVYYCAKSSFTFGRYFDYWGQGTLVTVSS
VL: SSELTQDPAVSVALGQTVRITCQGDSLRSYYASWYQQKPGQAPVLVIYGKNNRPSGIPDRFSGSSSGNTASLTITGAQAEDEADYYCNSRKSSSKNVVFGGGTKLTVL
notes: To be rechecked
Kd [6]: 9.12 nM | koff [6]: 0.00268 s⁻¹ | kon [6]: 294000 M⁻¹ s⁻¹ | Kd [7]: 9.55 nM | koff [7]: 0.00236 s⁻¹ | kon [7]: 247000 M⁻¹ s⁻¹ | binding result [4]: no binding

B5: 4F3 Fab (Fab, V domains shown)
VH: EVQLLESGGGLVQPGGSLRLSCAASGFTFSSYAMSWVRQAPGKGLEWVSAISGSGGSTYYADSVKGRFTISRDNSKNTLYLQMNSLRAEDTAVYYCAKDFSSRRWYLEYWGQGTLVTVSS
VL: SSELTQDPAVSVALGQTVRITCQGDSLRSYYASWYQQKPGQAPVLVIYGKNNRPSGIPDRFSGSSSGNTASLTITGAQAEDEADYYCNSLERIGYLSYVFGGGTKLTVL
notes: Human lambda Fab from E. coli; also called clone 4F3
Kd [8]: 29.5 nM | koff [8]: 0.00445 s⁻¹ | kon [8]: 151000 M⁻¹ s⁻¹ | Kd [9]: 33.6 nM | koff [9]: 0.0048 s⁻¹ | kon [9]: 143000 M⁻¹ s⁻¹ | Kd [6]: 18.2 nM | koff [6]: 0.00408 s⁻¹ | kon [6]: 224000 M⁻¹ s⁻¹ | Kd [7]: 21.6 nM | koff [7]: 0.00365 s⁻¹ | kon [7]: 169000 M⁻¹ s⁻¹ | binding result [4]: no binding

B6: 4F3 IgG (antibody, V domains shown)
VH: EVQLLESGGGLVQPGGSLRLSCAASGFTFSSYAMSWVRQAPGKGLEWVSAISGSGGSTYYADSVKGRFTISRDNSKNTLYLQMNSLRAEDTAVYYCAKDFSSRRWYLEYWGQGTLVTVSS
VL: SSELTQDPAVSVALGQTVRITCQGDSLRSYYASWYQQKPGQAPVLVIYGKNNRPSGIPDRFSGSSSGNTASLTITGAQAEDEADYYCNSLERIGYLSYVFGGGTKLTVL
notes: also called 4F3 human IgG1 antibody; clone 4F3
Kd [2]: 4.5 nM

B7: 51A12_E7 Fab (Fab, V domains shown)
VH: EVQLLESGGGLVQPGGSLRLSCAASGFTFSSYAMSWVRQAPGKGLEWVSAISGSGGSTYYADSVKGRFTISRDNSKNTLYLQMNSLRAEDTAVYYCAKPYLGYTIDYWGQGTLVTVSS
VL: SSELTQDPAVSVALGQTVRITCQGDSLRSYYASWYQQKPGQAPVLVIYGKNNRPSGIPDRFSGSSSGNTASLTITGAQAEDEADYYCNSRDYRYNRAVRPFGGGTKLTVL
notes: Fab
Kd [1]: 0.448 nM | koff [1]: 9.64e-05 s⁻¹ | kon [1]: 215000 M⁻¹ s⁻¹ | binding result [10]: binds

B8: 51A12 Fab (Fab, V domains shown)
VH: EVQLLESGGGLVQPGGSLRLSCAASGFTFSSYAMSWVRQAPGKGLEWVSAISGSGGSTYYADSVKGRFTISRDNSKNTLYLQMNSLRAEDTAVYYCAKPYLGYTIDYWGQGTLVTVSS
VL: SSELTQDPAVSVALGQTVRITCQGDSLRSYYASWYQQKPGQAPVLVIYGKNNRPSGIPDRFSASSSGNTASLTITGAQAEDEADYYCNSRDICCNRSVRNFGGGTKLTVL
notes: Human lambda Fab from E. coli, purified by IMAC; also called clone 51A12; parental clone 51A12
Kd [3]: 0.57 nM | koff [3]: 6.28e-05 s⁻¹ | kon [3]: 110000 M⁻¹ s⁻¹ | Kd [1]: 0.57 nM | koff [1]: 6.28e-05 s⁻¹ | kon [1]: 110000 M⁻¹ s⁻¹ | Kd [5]: 0.571 nM | koff [5]: 6.28e-05 s⁻¹ | kon [5]: 110000 M⁻¹ s⁻¹

B9: 51A12_A6 Fab (Fab, V domains shown)
VH: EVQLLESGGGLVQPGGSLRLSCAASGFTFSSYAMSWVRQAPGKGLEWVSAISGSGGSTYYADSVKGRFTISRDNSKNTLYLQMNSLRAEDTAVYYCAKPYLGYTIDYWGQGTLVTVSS
VL: SSELTQDPAVSVALGQTVRITCQGDSLRSYYASWYQQKPGQAPVLVIYGKNNRPSGIPDRFSGSSSGNTASLTITGAQAEDEADYYCNSRTYSYNRAVRNFGGGTKLTVL
notes: Fab; also called Variant 51A12_A6
Kd [1]: 0.0801 nM | koff [1]: 2.61e-05 s⁻¹ | kon [1]: 326000 M⁻¹ s⁻¹ | binding result [10]: binds

B10: 51A12_D1 Fab (Fab, V domains shown)
VH: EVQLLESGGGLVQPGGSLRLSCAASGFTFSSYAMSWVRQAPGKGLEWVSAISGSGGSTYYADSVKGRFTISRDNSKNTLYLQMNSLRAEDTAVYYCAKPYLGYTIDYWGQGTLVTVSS
VL: SSELTQDPAVSVALGQTVRITCQGDSLRSYYASWYQQKPGQAPVLVIYGKNNRPSGIPDRFSGSSSGNTASLTITGAQAEDEADYYCNSRTYSYNRAVRPFGGGTKLTVL
notes: Fab
Kd [1]: 0.221 nM | koff [1]: 8.85e-05 s⁻¹ | kon [1]: 400000 M⁻¹ s⁻¹ | binding result [10]: binds

B11: 51A12_H6 Fab (Fab, V domains shown)
VH: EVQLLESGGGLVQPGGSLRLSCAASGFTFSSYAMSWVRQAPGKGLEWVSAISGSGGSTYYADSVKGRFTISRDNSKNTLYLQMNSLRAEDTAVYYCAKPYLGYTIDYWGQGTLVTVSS
VL: SSELTQDPAVSVALGQTVRITCQGDSLRSYYASWYQQKPGQAPVLVIYGKNNRPSGIPDRFSGSSSGNTASLTITGAQAEDEADYYCNSRDYKWNRVVRHFGGGTKLTVL
notes: Fab
Kd [1]: 0.325 nM | koff [1]: 2.79e-05 s⁻¹ | kon [1]: 86000 M⁻¹ s⁻¹ | binding result [10]: binds

B12: 51A12_H3 Fab (Fab, V domains shown)
VH: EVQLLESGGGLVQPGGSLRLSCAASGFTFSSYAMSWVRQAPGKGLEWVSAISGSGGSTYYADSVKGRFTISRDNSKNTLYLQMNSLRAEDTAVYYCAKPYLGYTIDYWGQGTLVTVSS
VL: SSELTQDPAVSVALGQTVRITCQGDSLRSYYASWYQQKPGQAPVLVIYGKNNRPSGIPDRFSGSSSGNTASLTITGAQAEDEADYYCNSRDYKFNRVVRNFGGGTKLTVL
notes: Fab
Kd [1]: 0.51 nM | koff [1]: 8.3e-05 s⁻¹ | kon [1]: 163000 M⁻¹ s⁻¹ | binding result [10]: binds

B13: 51A12 S116A Fab (Fab, V domains shown)
VH: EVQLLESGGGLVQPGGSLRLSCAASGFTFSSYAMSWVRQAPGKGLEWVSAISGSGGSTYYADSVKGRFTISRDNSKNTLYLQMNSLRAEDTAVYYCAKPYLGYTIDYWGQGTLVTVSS
VL: SSELTQDPAVSVALGQTVRITCQGDSLRSYYASWYQQKPGQAPVLVIYGKNNRPSGIPDRFSASSSGNTASLTITGAQAEDEADYYCNSRDICCNRAVRNFGGGTKLTVL
notes: Fab
Kd [1]: 1.43 nM | koff [1]: 0.000178 s⁻¹ | kon [1]: 131000 M⁻¹ s⁻¹ | binding result [10]: binds

B14: 51A12 IgG (antibody, V domains shown)
VH: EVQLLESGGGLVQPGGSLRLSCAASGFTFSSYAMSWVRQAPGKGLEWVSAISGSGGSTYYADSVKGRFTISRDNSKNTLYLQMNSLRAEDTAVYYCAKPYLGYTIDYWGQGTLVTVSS
VL: SSELTQDPAVSVALGQTVRITCQGDSLRSYYASWYQQKPGQAPVLVIYGKNNRPSGIPDRFSASSSGNTASLTITGAQAEDEADYYCNSRDICCNRSVRNFGGGTKLTVL
notes: also called 51A12 human IgG1 antibody; clone 51A12 IgG
Kd [5]: 0.21 nM | koff [5]: 7.34e-05 s⁻¹ | kon [5]: 350000 M⁻¹ s⁻¹ | Kd [2]: 200 nM

B15: 51A12_C7 Fab (Fab, V domains shown)
VH: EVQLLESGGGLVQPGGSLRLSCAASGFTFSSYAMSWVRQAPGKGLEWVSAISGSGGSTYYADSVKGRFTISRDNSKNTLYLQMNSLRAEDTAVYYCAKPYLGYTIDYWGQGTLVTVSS
VL: SSELTQDPAVSVALGQTVRITCQGDSLRSYYASWYQQKPGQAPVLVIYGKNNRPSGIPDRFSGSSSGNTASLTITGAQAEDEADYYCNSRDIRYNRVVRPFGGGTKLTVL
notes: Fab
Kd [1]: 0.235 nM | koff [1]: 4.67e-05 s⁻¹ | kon [1]: 199000 M⁻¹ s⁻¹ | binding result [10]: binds

B16: 51A12_C1 Fab (Fab, V domains shown)
VH: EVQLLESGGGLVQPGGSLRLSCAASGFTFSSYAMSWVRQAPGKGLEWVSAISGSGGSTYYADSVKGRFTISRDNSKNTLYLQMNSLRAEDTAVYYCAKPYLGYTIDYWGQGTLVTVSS
VL: SSELTQDPAVSVALGQTVRITCQGDSLRSYYASWYQQKPGQAPVLVIYGKNNRPSGIPDRFSGSSSGNTASLTITGAQAEDEADYYCNSRSYAFNRVVRNFGGGTKLTVL
notes: Fab
Kd [1]: 0.241 nM | koff [1]: 4.19e-05 s⁻¹ | kon [1]: 174000 M⁻¹ s⁻¹ | binding result [10]: binds

B17: R9E10 Fab (Fab, V domains shown)
VH: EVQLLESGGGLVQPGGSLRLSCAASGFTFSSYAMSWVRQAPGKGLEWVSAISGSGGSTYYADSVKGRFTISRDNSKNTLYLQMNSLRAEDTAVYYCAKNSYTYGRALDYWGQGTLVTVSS
VL: SSELTQDPAVSVALGQTVRITCQGDSLRSYYASWYQQKPGQAPVLVIYGKNNRPSGIPDRFSGSSSGNTASLTITGAQAEDEADYYCNSRNVRGKLVFGGGTKLTVL
notes: Human lambda Fab from E. coli
Kd [6]: 3.6 nM | koff [6]: 0.00211 s⁻¹ | kon [6]: 586000 M⁻¹ s⁻¹ | Kd [7]: 4.34 nM | koff [7]: 0.00199 s⁻¹ | kon [7]: 460000 M⁻¹ s⁻¹ | binding result [4]: no binding

B18: R5C2 IgG (antibody, V domains shown)
VH: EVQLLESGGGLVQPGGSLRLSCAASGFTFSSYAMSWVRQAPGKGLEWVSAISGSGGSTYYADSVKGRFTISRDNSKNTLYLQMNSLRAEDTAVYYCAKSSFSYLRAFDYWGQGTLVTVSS
VL: SSELTQDPAVSVALGQTVRITCQGDSLRSYYASWYQQKPGQAPVLVIYGRNNRPSGIPDRFSGSSSGNTASLTITGAQAEDEADYYCNSRDRRGYSVFGGGTKLTVL
notes: also called R5C2 human IgG1 antibody
Kd [2]: 5.9 nM

B19: R5C2 Fab (Fab, V domains shown)
VH: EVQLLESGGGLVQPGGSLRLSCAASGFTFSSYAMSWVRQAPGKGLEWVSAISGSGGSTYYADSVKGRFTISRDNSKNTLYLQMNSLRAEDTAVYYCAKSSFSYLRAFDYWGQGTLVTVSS
VL: SSELTQDPAVSVALGQTVRITCQGDSLRSYYASWYQQKPGQAPVLVIYGRNNRPSGIPDRFSGSSSGNTASLTITGAQAEDEADYYCNSRDRRGYSVFGGGTKLTVL
notes: Human lambda Fab from E. coli
Kd [6]: 2.65 nM | koff [6]: 0.00112 s⁻¹ | kon [6]: 423000 M⁻¹ s⁻¹ | Kd [7]: 3.41 nM | koff [7]: 0.00114 s⁻¹ | kon [7]: 334000 M⁻¹ s⁻¹ | binding result [4]: no binding

B20: R9E10 IgG (antibody, V domains shown)
VH: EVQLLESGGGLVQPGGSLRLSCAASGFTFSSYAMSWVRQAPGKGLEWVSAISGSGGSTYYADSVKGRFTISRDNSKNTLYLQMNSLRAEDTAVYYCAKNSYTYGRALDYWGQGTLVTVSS
VL: SSELTQDPAVSVALGQTVRITCQGDSLRSYYASWYQQKPGQAPVLVIYGKNNRPSGIPDRFSGSSSGNTASLTITGAQAEDEADYYCNSRNVRGKLVFGGGTKLTVL
notes: also called R9E10 human IgG1 antibody
Kd [2]: 6.2 nM
